Data: publication PMC6017339, “A Turn-on Fluorescence Sensor for Heparin Detection Based on a Release of Taiwan Cobra Cardiotoxin from a DNA Aptamer or Adenosine-Based Molecular Beacon”

Biological target: T1, cardiotoxin 3 (CTX3) (Naja naja atra (Taiwan cobra), UniProt P60301 22-81)
T1 sequence: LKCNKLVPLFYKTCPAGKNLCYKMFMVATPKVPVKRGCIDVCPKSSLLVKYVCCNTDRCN
Assay: fluorescence quenching titration; 20 nM aptamer; >80% quenching, saturated at 400 nM CTX3; 10 mM HEPES pH 8.0, 30 C, 5 min incubation, no added salt stated; 20 nM aptamer or 10 nM MB
Conditions: protein: native; label: 5'-FAM; 3'-DABCYL

GCGAGGTGTTCGAGAGTTAGGGGCGACATGACCAAACGTT (ssDNA) [DNA aptamer against CTX3]
binding result: binds
